Molecular target: FLAG-tagged full-length BRCA2 (human, UniProt P51587 1-3418)
Test: pull-down

Sequence of FLAG-tagged full-length BRCA2 (P51587 whole entry): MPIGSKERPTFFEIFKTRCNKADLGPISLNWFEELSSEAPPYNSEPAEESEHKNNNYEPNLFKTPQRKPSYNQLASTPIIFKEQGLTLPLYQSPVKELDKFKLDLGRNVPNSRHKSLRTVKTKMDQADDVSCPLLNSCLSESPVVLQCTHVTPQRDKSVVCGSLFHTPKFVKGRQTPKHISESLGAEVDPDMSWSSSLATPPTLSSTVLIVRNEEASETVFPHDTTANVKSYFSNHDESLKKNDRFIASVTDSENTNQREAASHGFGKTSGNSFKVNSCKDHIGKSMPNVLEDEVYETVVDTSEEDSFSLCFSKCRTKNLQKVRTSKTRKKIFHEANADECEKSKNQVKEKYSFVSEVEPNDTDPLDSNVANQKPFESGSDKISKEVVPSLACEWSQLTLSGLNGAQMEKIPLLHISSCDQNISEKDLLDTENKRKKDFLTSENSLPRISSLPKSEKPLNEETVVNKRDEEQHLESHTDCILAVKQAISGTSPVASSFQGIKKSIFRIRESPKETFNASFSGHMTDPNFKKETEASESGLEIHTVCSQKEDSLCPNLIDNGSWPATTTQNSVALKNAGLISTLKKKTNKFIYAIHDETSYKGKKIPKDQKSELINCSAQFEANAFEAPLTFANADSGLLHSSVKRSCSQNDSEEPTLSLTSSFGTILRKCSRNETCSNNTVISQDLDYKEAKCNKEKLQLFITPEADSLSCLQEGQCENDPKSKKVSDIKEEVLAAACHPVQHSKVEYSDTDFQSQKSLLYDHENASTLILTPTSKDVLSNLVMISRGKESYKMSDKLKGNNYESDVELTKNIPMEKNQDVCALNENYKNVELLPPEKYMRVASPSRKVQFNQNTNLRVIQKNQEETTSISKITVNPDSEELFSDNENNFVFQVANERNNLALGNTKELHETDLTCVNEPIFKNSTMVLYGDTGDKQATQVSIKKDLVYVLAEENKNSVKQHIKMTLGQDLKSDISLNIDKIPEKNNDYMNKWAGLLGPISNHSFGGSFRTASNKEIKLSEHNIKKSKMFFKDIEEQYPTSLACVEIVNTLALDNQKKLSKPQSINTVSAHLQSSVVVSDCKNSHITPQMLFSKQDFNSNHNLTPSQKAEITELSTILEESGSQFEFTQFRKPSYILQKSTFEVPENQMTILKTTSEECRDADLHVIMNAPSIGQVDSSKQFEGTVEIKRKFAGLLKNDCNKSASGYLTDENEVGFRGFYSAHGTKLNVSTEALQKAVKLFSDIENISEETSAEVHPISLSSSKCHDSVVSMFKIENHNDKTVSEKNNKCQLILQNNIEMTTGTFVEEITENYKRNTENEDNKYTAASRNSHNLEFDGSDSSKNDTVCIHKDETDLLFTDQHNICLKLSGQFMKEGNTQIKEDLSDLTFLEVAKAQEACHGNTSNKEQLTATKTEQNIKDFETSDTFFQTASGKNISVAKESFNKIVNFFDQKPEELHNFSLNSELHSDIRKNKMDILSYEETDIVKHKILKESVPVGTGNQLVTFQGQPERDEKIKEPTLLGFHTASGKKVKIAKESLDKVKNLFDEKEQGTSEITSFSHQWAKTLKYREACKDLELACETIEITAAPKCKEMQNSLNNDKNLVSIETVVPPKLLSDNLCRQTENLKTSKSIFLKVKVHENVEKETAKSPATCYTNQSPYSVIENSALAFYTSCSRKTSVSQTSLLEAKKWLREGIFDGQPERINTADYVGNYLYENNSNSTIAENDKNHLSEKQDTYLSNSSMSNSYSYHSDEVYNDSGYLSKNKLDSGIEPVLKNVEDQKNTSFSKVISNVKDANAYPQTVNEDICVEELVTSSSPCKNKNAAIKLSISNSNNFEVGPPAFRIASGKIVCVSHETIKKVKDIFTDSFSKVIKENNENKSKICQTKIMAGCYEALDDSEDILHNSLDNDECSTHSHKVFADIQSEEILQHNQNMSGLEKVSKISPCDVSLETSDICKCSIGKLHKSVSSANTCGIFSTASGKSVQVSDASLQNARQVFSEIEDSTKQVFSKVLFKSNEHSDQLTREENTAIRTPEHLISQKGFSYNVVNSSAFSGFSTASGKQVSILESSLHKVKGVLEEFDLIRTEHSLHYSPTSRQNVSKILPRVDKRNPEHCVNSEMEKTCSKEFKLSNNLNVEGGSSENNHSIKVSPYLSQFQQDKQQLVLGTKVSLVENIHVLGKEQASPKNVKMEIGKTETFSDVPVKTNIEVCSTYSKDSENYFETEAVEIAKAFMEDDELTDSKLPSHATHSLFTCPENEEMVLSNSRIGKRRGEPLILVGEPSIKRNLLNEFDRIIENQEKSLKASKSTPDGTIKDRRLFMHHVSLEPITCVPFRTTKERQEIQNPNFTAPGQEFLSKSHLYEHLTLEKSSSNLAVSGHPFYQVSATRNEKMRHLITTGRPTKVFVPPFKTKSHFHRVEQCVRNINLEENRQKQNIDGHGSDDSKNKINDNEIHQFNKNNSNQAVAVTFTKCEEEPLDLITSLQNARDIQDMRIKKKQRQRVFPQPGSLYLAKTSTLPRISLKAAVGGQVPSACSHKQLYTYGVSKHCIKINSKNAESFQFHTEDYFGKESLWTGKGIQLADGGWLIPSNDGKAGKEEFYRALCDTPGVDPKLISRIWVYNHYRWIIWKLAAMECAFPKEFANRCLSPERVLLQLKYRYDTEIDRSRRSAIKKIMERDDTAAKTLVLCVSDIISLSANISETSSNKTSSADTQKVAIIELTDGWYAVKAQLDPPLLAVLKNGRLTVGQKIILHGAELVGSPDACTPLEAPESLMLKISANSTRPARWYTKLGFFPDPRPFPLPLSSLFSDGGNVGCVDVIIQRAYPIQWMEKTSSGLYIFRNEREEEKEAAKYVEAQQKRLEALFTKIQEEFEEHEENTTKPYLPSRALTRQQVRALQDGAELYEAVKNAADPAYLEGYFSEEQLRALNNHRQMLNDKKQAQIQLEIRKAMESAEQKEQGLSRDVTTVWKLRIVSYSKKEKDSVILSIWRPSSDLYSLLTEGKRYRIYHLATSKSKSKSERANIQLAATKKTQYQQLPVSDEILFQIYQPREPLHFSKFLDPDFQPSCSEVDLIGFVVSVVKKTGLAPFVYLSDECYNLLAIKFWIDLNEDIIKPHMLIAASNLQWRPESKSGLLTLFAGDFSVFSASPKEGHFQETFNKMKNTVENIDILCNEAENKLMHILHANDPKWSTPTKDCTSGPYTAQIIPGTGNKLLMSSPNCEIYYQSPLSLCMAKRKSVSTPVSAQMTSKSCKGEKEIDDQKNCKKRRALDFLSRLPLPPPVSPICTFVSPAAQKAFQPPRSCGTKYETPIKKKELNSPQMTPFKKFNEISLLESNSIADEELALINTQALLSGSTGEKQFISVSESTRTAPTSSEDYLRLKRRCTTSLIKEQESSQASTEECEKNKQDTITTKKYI

B1: His-tagged full-length LIC2 (natural protein, human, UniProt O43237 1-492, looked up)
chain: MAPVGVEKKLLLGPNGPAVAAAGDLTSEEEEGQSLWSSILSEVSTRARSKLPSGKNILVFGEDGSGKTTLMTKLQGAEHGKKGRGLEYLYLSVHDEDRDDHTRCNVWILDGDLYHKGLLKFAVSAESLPETLVIFVADMSRPWTVMESLQKWASVLREHIDKMKIPPEKMRELERKFVKDFQDYMEPEEGCQGSPQRRGPLTSGSDEENVALPLGDNVLTHNLGIPVLVVCTKCDAVSVLEKEHDYRDEHLDFIQSHLRRFCLQYGAALIYTSVKEEKNLDLLYKYIVHKTYGFHFTTPALVVEKDAVFIPAGWDNEKKIAILHENFTTVKPEDAYEDFIVKPPVRKLVHDKELAAEDEQVFLMKQQSLLAKQPATPTRASESPARGPSGSPRTQGRGGPASVPSSSPGTSVKKPDPNIKNNAASEGVLASFFNSLLSKKTGSPGSPGAGGVQSTAKKSGQKTVLSNVQEELDRMTRKPDSMVTNSSTENEA
- binding result: binds

Reference: PMC4993541 (Cell Cycle, 2016)
